Measured values as given in article PMC6738421, “Beta-amyloid induces apoptosis of neuronal cells by inhibition of the Arg/N-end rule pathway proteolytic activity” (Aging (Albany NY), 2019).

B1: Arginyl-tRNA-protein transferase Ate1, isoform Ate1-1 (enzyme, mouse, UniProt Q9Z2A5-1 1-516, looked up)
chain: MASWSAPSPSLVEYFEGQTSFQCGYCKNKLGSRSYGMWAHSMTVQDYQDLIDRGWRRSGKYVYKPVMDQTCCPQYTIRCHPLQFQPSKSHKKVLKKMLKFLAKGEISKGNCEDEPMDSTVEDAVDGDFALINKLDIKCDLKTLSDLKGSIESEEKEKEKSIKKEGSKEFIHPQSIEEKLGSGEPSHPIKVHIGPKPGKGADLSKPPCRKAREMRKERQRLKRMQQASAAASEAQGQPVCLLPKAKSNQPKSLEDLIFQSLPENASHKLEVRVVRSSPPSPQFRATFQESYQVYKRYQMVVHKDPPDKPTVSQFTRFLCSSPLEAEHPADGPECGYGSFHQQYWLDGKIIAVGVLDILPYCVSSVYLYYDPDYSFLSLGVYSALREIAFTRQLHEKTSQLSYYYMGFYIHSCPKMRYKGQYRPSDLLCPETYVWVPIEQCLPSLDNSKYCRFNQDPEAEDEGRSKELDRLRVFHRRSAMPYGVYKNHQEDPSEEAGVLEYANLVGQKCSERMLLFRH
notes: mouse arginyl-tRNA-protein transferase Ate1, isoform Ate1-1; untagged after cleavage; also called R-transferase Ate1; arginyltransferase Ate1; source: E. coli Rosetta(DE3)pLysS, purified (Ni-NTA, Ub moiety cleaved with Usp2-cc, second Ni-NTA)
B2: Arginyl-tRNA-protein transferase Ate1, isoform Ate1-3 (enzyme, mouse, UniProt Q9Z2A5-3 1-509, looked up)
chain: MASVVEYKGLKAGYYCGYCESREGKTSCGMWAHSMTVQDYQDLIDRGWRRSGKYVYKPVMDQTCCPQYTIRCHPLQFQPSKSHKKVLKKMLKFLAKGEISKGNCEDEPMDSTVEDAVDGDFALINKLDIKCDLKTLSDLKGSIESEEKEKEKSIKKEGSKEFIHPQSIEEKLGSGEPSHPIKVHIGPKPGKGADLSKPPCRKAREMRKERQRLKRMQQASAAASEAQGQPVCLLPKAKSNQPKSLEDLIFQSLPENASHKLEVRVVRSSPPSPQFRATFQESYQVYKRYQMVVHKDPPDKPTVSQFTRFLCSSPLEAEHPADGPECGYGSFHQQYWLDGKIIAVGVLDILPYCVSSVYLYYDPDYSFLSLGVYSALREIAFTRQLHEKTSQLSYYYMGFYIHSCPKMRYKGQYRPSDLLCPETYVWVPIEQCLPSLDNSKYCRFNQDPEAEDEGRSKELDRLRVFHRRSAMPYGVYKNHQEDPSEEAGVLEYANLVGQKCSERMLLFRH
notes: untagged after cleavage; also called R-transferase Ate1; arginyltransferase Ate1; source: E. coli Rosetta(DE3)pLysS, purified (Ni-NTA, Ub moiety cleaved with Usp2-cc, second Ni-NTA)

Molecular target: T1, Beta-amyloid peptide Aβ42
T1 construct: beta-amyloid peptide 1-42, a stretch of the amyloid precursor protein; free N-terminus [H2N] and C-terminus [COOH] as printed; Monomerised with HFIP and dissolved in DMSO; for the ITC kinetics treated with 10% NH4OH, lyophilised and resuspended in reaction buffer; source: synthetic peptide, bought: Biopeptide
Assay: ELISA; sandwich ELISA: Aβ42 (1 μM) captured on immobilised anti-Aβ1-17 antibody, Ate1 added for 90 min at 37°C (30 mM KCl, 5 mM MgCl2, 15 μM Arg, 1 mM ATP, 50 mM Hepes pH 7.5), read by loss of the anti-Aβ36-42 detection antibody signal (OD450); without tRNA
Details: both partners purified

Binder | binding result
B1 | binds
B2 | binds
